Laboratory results as given in patent publication US20240382606A1.

Target: CD8 co-receptors on CD8+ T cells (OT-1 mouse splenocytes) (mouse) (UniProt P01731)
Experiment: flow cytometry, noncognate APNs on OT-1 CD8+ splenocytes, in vitro

UniProt P01731, sequence (P01731 28-247, chain 1 of 2): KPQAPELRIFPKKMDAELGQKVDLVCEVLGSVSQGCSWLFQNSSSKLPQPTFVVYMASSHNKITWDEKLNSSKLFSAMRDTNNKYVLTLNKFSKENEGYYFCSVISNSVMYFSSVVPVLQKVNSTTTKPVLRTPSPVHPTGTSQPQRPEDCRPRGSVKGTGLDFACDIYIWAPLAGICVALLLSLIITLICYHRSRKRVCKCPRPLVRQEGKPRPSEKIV
UniProt P01731, sequence (P10300 22-213, chain 2 of 2, further chain): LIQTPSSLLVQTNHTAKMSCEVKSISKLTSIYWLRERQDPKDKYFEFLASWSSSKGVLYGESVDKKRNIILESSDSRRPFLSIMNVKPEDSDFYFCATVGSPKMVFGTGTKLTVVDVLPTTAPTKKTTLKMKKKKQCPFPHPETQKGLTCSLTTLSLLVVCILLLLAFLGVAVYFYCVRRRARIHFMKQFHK

**Q.** With “NS2/K^b antigen-presenting nanoparticle (APN): NS2 peptide RTFSFQLI on H2-K^b on an mRNA lipid nanoparticle (peptide-MHC)” as the substance, how does the percent cross-reactivity read?
**A.** 10%
